Measurements: US20200079851A1 (University of Texas, published 2020)
Positions count from the first letter of the chain named.

Key:
human LILRB4 [1] = molecular target: T1, human LILRB4 (human, UniProt Q8NHJ6 22-259, limits assumed); assay: ELISA, OD450 against antibody concentration
T1 construct: also called leukocyte immunoglobulin-like receptor subfamily B member 4

D2-SR-M16(210-259) = assay: ELISA, mAb titrated on D2-SR-M16(210-259)
human LILRB4 [2] = molecular target: T1, human LILRB4; assay: ELISA
human LILRB4 [3] = molecular target: T1, human LILRB4; assay: reactivity table, assay not named on the sheet
LILRB5 = LILRB5 (human, UniProt O75023 24-458, limits assumed); assay: reactivity table, assay not named on the sheet
LILRB3 = molecular target: T2, LILRB3 (human, UniProt O75022 24-443, limits assumed); assay: flow cytometry on LILRB3-overexpressing 293T cells, mAb at 2 ug/ml
T2 construct: also called leukocyte immunoglobulin-like receptor subfamily B member 3

human LILRB4 [4] = molecular target: T1, human LILRB4; assay: flow cytometry on LILRB4-overexpressing 293T cells, mAb at 2 ug/ml
human LILRB4 [5] = molecular target: T1, human LILRB4; assay: ELISA, OD450 against antibody concentration; remark: listed apart in the source
human LILRB4 [6] = molecular target: T1, human LILRB4; assay: ELISA, OD450 against antibody concentration; remark: listed apart in the source
human LILRB4 [7] = molecular target: T1, human LILRB4; assay: ELISA, OD450 against antibody concentration; remark: listed apart in the source
human LILRB4 [8] = molecular target: T1, human LILRB4; assay: ELISA, OD450 against antibody concentration; remark: listed apart in the source
LILRB2 = molecular target: T3, LILRB2 (human, UniProt Q8N423 22-458, limits assumed); assay: flow cytometry on LILRB2-overexpressing 293T cells, mAb at 2 ug/ml
T3 construct: also called leukocyte immunoglobulin-like receptor subfamily B member 2
T3 sequence (Q8N423 22-458 limits assumed): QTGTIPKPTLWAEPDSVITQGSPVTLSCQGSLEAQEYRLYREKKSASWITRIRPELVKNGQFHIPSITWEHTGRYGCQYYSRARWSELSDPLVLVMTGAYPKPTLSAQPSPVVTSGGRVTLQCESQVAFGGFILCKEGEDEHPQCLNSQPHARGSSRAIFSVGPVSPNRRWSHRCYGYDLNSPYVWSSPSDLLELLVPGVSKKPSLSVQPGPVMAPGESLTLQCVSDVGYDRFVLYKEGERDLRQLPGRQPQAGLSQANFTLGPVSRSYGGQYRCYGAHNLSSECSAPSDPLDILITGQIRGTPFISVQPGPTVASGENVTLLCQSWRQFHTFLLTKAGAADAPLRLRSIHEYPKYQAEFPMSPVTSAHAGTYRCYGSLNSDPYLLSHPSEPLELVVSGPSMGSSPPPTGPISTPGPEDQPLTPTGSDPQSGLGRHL

T2 sequence (O75022 24-443 limits assumed): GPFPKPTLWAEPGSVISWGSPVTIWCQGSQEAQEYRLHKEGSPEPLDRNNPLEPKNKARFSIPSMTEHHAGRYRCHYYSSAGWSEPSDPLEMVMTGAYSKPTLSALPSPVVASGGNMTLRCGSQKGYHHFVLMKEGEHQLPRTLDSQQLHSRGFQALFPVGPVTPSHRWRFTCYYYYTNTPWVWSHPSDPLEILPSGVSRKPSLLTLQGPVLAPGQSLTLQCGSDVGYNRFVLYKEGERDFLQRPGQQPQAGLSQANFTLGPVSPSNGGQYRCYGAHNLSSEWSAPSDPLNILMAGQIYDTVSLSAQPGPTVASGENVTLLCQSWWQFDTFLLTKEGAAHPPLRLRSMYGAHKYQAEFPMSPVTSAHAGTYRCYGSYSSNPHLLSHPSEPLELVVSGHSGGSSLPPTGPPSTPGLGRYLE
Sequence of LILRB5 (O75023 24-458 limits assumed): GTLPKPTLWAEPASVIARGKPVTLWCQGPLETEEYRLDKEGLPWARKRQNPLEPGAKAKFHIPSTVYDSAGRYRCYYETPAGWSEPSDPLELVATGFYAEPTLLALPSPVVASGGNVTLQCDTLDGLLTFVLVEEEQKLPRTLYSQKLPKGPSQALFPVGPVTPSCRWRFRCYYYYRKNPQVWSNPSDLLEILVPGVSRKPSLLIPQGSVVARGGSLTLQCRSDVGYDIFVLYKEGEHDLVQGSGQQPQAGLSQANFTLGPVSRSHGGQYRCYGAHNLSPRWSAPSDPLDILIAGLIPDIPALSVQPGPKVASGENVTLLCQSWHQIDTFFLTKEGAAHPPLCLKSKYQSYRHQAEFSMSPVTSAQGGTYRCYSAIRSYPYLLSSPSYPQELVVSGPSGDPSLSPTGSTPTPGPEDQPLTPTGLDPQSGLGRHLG
Sequence of D2-SR-M16(210-259) (chain, as listed by the source): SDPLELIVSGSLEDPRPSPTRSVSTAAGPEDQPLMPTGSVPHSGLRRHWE

B1: anti-LILRB4 rabbit monoclonal antibody #140 (antibody, V domains shown)
VH: EQSLKESGGRLVTPGTPLTLTCTASGFSLSTYDMSWVRQAPGKGLEWIGIISTSYSIYYTYYASWAKGRFTISRTSSTTVDLKMTSLTTEDTATYFCVGGGGKLNSVVYYIRGLRFWGQGTLVTISS
VL: ELVMTQTPSSTSAAVGGTVTINCQASQSVYDDNWCSWYQQKPGQPPKLLIYDASTLPSGVPSRFKGSGSGTQFTLTISDLECDDAATYYCAGAYSDNIYVFGGGTEVEIK
notes: also called mAb 140
For B1, the EC50 (human LILRB4 [1]) was 0.0274 µg/mL, the “EC50 (read off the curve)” value (D2-SR-M16(210-259)) was ~0.04 µg/mL and the EC50 (human LILRB4 [2]) was 183 pM.

B2: anti-LILRB mAb C290 (antibody, V domains shown)
VH: EVQLLQSGPELVKPGASVKISCRTSGYTFTEYTMHWVKQSHGKSLEWIGGINTNNGGTSYNQKFKGKATLTVDKSSSTAYMELRSLTSEDSAVYYCARDKRSRGELDSTMDYWGQGTSVTVSS
VL: DIVMTQAAPSVPVTPGESVSISCRSSKSLLHSNGNTYLYWFLQRPGQSPQLLIYRMSNLASGVPDRFSGSGSGTAFTLRISRVEAEDVGVYYCMQHLEYPFTFGSGTMLEIK
notes: mAb against LILRB3
B2 was tested, and the binding result (human LILRB4 [3]) was “binds”, the binding result (LILRB5) was “binds” and the “% of cells in the positive gate” value (LILRB3) was 64%.

B3: anti-LILRB mAb C287 (antibody, V domains shown)
VH: QIQLVQSGPELKKPGETVKISCKASGYTFTNYGINWVKQAPGKGLKWMGWINTNTGEPTYAEDFKGRFAFSLETSASTAYLQINNLKNEDTATYFCTRGSAKGGFFYWGQGTLVTVSA
VL: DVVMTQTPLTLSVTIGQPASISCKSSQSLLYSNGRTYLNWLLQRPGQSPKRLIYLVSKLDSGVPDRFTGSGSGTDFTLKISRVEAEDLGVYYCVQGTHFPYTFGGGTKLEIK
notes: mAb against LILRB3
In the case of B3, the “% of cells in the positive gate” value (LILRB3) is reported as 55%.

B4: anti-LILRB mAb C3 (antibody, V domains shown)
VH: EVQLVESGGGLVQPKGSLKLSCAASGFTFNNYAMNWGRQAPGKGLEWVARIRSKRNNYATHYDDSVKDRFTISRDDSQNMLYLQLNNLKTEDTAMYYCVRDGPYAMDYWGQGTSVTVSS
VL: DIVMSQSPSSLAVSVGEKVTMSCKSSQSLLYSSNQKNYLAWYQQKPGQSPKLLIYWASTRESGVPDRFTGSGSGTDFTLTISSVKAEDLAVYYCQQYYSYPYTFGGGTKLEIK
notes: mAb against LILRB3
In the case of B4, the binding result (human LILRB4 [3]) is reported as “binds” and the “% of cells in the positive gate” value (LILRB3) is reported as 54.2%.

B5: anti-LILRB4 mAb C84 (antibody, V domains shown)
VH: QIQLVQSGPELKKPGETVKISCKASGYTFTNYGMNWVKQAPGKGLKWMGWINTYTGEPTYADDFKGRFAFSLETSASTAYLQINNLKNEDMATYFCASIYYHTSLWYFDVWGAGTTVTVSS
VL: DVLMTQTPLSLPVSLGDQASISCRSSQNIVHSNGNTYLEWYLQKPGQSPKLLIYRVSNRFSGVPVRFSGSGSGTDFTLKISRVEAEDLGVYYCFQGSHVPLTFGAGTKLELK
notes: Mouse mAb; also called anti-hLILRB4
In the case of B5, the EC50 (human LILRB4 [2]) is reported as 568 pM and the “% of cells in the positive gate” value (human LILRB4 [4]) is reported as 62.5%.

B6: anti-LILRB4 mAb C53 (antibody, V domains shown)
VH: EVNLEESGGGLVQPGGSMKLSCIASGFTFSNYWMNWVRQSPEKGLEWVAEIRLKYNNYATHYAESVKGRFTISRDDSKSTVYLQMNNLRAEDTGIYYCTGTRYGSSLDYWGQGTSVTVSS
VL: DIVMSQSPSSLAVSVGEKVTMSCKSSQNLFYSTNQKNYLAWYQQKPGQSPKLLIYWASTRESGVPDRFTGSGSGTAFTLTISSVKAEDLAVYYCQQYYNYPLTFGAGTKLELK
notes: Mouse mAb
In the case of B6, the “% of cells in the positive gate” value (human LILRB4 [4]) is reported as 73.5%.

B7: anti-LILRB4 mAb C201 (antibody, V domains shown)
VH: DVQLQESGPGLVKPSQSLSLTCTVTGYSITSDYAWNWIRQFPGNKLEWMGYISYSGGTSYNPSLKSRISITRDTSKNQFFLQLNSVTTEDTATYYCARLHYGYDYWGLGTTLTVSS
VL: B5 VL with N28S, R55K, V65D, S97L, L101P, A105G, L111I
notes: Mouse mAb
For B7, the binding result (LILRB5) was “binds” and the “% of cells in the positive gate” value (human LILRB4 [4]) was 38.3%.

B8: anti-LILRB4 mAb C92 (antibody, V domains shown)
VH: B5 VH
VL: DVVMTQTPLSLPVSLGDQASISCRSSQSLVHSNGNTYLHWYLQKPGQSPKLLIYKVSNRFSGVPDRFSGSGSGTDFTLKISRVEAEDLGVYFCSQSTHVPYTFGGGTKLEIK
notes: Mouse mAb
With B8 the “% of cells in the positive gate” value (human LILRB4 [4]) was 44.7%.

B9: anti-LILRB4 rabbit monoclonal antibody #128-1 (antibody, V domains shown)
VH: EQSVEESEGRLVTPGGSLTLTCTVSGFGLSSWAMAWVRQAPGKGLEWIGIIGVSGKIYYPTWAKGRFTISRTSTTVDLKIASPTTEDTATYFCAREPYGDSLWGQGTLVTISS
VL: ELVMTQTPSPVSAAVGGTVTISCQSSQNISTYLSWYQQKPGQPPKFLIYQASKLASGVSSRFKGSGSGTQFTLTISDVQCDDAASYYCAGWKSYSNDDNDFGGGTEVVVK
notes: Rabbit mAb
An EC50 (human LILRB4 [2]) of 139 pM and an EC50 (human LILRB4 [5]) of 0.0209 µg/mL were found for B9 in this work.

B10: anti-LILRB4 rabbit monoclonal antibody #216-1 (antibody, V domains shown)
VH: EQSVEESGGGLVKPGASLTLTCIASGFSFSSSYVMCWVRQAPGKGLELIACIHAGGSGSTYYASWAKGRFTISKTSSTTVTLQMTSLTAADTATYFCARYNYHFYYIGDYSDLWGPGTLVTVSS
VL: ELVMTQTPSSVSAAVGGTVTIKCQASEDIDSYLAWYQQKPGQRPKVLIYRASTLASGVPSRFKGSGSGTEFTLTISGLECDDAATYYCQQGWSNDVGSNAFGGGTKVEIK
notes: Rabbit mAb
An EC50 (human LILRB4 [6]) of 0.0459 µg/mL was found for B10 in this work.

B11: anti-LILRB4 rabbit monoclonal antibody #101 (antibody, V domains shown)
VH: HSVKESGGGLVTPGESLKLTCKASGMDFSKYWICWVRQAPGKGLEWIACIDTGRSAITVYAKWAKGRFTISKTSSTTVTLQMTTLTAADTATYFCETSVDLWGPGTLVTISS
VL: ELDLTQTPASVEAAVGGTVTIKCQASESIYSGLAWYKQKPGQPPKFLILSASTQASGVPSRFKGSGSGTEFTLTISDLECADAATYYCQSRHYGSSRSYGFAFGGGTEVEIK
notes: Rabbit mAb
An EC50 (human LILRB4 [7]) of 0.0177 µg/mL and an EC50 (human LILRB4 [2]) of 118 pM were found for B11 in this work.

B12: anti-LILRB4 rabbit monoclonal antibody #223 (antibody, V domains shown)
VH: EQSVKESGGRLVTPGTPLTLTCIVSGFSLNNYAISWVRQAPEKGLEWIGMIRSDGHVDYATWAKGRFTISKTSTTVDLKMTSLTTEDTATYFCARGGHFFNPWGPGTLVTISS
VL: ELVMTQTPSPVSAAVGGTVTISCQSSQTVYNYNELAWYQQKPGQPPKLLIDAASTLASGVPSRFSGSGSGTQFTLKISEVQCDDAATYYCQGTYYISGWYYTFGGGTEVVVK
notes: Rabbit mAb
An EC50 (human LILRB4 [8]) of 0.0274 µg/mL and an EC50 (human LILRB4 [2]) of 89.7 pM were found for B12 in this work.

B13: anti-LILRB mAb C193 (antibody, V domains shown)
VH: EVQLVESGGGLVQPKGSLRLSCAASGFIFNTYAMNWVRQAPGKGLEWVARIRSKSNKYATYYVDSVKDRFTISRDDSQSMLYLQMNNLKTEDTAMYYCVRDGIWGQGTLVTVSA
VL: DIVMTQSPSSLTVTAGEKVTMSCKSSQSLLNSGNQKNYLTWYHQKPGQPPKLLIYWAFTRESGVPDRFTGSGSGTDFTLTISSVQAEDLAVYYCQNDYSYPLTFGSGTKLEIK
notes: mAb against LILRB2
In the case of B13, the “% of cells in the positive gate” value (LILRB2) is reported as 15%.

B14: anti-LILRB mAb C102 (antibody, V domains shown)
VH: EVQLQQSGPELVKPGASVKISCKTSGYTFTEYTMHWVKQSHGKSLEWIGGINPNNGGTSYNQKFKGKATLTVDKSSSTAYMDLRSLTSEDSAVYYCARYWDYFDYWGQGTTLTVSS
VL: B5 VL with N28S, Y41F, R55K, V65D, H98Q, V99I, L101P, A105G, L111I
notes: mAb against LILRB2
For B14, the “% of cells in the positive gate” value (LILRB2) was 5.22%.

B15: anti-LILRB4 rabbit monoclonal antibody #161-1 (antibody, V domains shown)
VH: QSVKESGGRLVTPGTPLTLTCTVSGIDLSVYLMSWVRHSPGKGLEYIGFINSAGITAYATWAKGRFIISKTSTTVDLKVTSPTTEDTATYFCARNWIRLDLWGQGTLVTISS
VL: ELDLTQTPASVSAAVGGTVTISCQSSETIYKNYLSWFQQKPGQPPKLLIYESSKLASGVPSRFSGSGSGTQFTLTISDVQCDDAATYYCLGGYTDGRDTIFGGGTELEIK
notes: Rabbit mAb
An EC50 (human LILRB4 [2]) of 69.1 pM was found for B15 in this work.

B16: anti-LILRB4 rabbit monoclonal antibody #161-2 (antibody, V domains shown)
VH: B15 VH
VL: TQTPASVSAAVGGTVTISCQSSETIYKNYLSWFQQKPGQPPKLLIYESSKLASGVPSRFSGSGSGTQFTLTISDVQCDDAATYYCLGGYTDGRDTIFGGGTEVEIK
notes: Rabbit mAb
An EC50 (human LILRB4 [2]) of 84 pM was found for B16 in this work.

B17: anti-LILRB4 rabbit monoclonal antibody #192 (antibody, V domains shown)
VH: EQSLEESGGGLVTPGGTLTLTCTVSGFSLSNNAMSWVRQAPGKGLEWIGVILLAGPTYYASWAKGRFTISKTSTTVDLKITSPTTEDTATYFCAIAIGSRPFALWGQGTLVTISS
VL: ELVLTQTPSSTSAAVGGTVTINCQSSQSVYSNWLSWFQQKPGQPPKPLIYLASTLASGVPSRFSGSGSGTQFTLTISDVQCDDAATYYCQGGYNGNIYTFGGGTEVVVK
notes: Rabbit mAb
An EC50 (human LILRB4 [2]) of 140 pM was found for B17 in this work.

B18: anti-LILRB4 rabbit monoclonal antibody #208 (antibody, V domains shown)
VH: B17 VH with L4V, A54S, P56T
VL: B17 VL with L4M
notes: Rabbit mAb
An EC50 (human LILRB4 [2]) of 132 pM was found for B18 in this work.

B19: anti-LILRB4 rabbit monoclonal antibody #120 (antibody, V domains shown)
VH: QSLEESGGRLVTPGTPLTLTCTVSGIDLNKYAMTWVRQAPGKGLEYIGFINIVGIAGYATWAKGRFTISKTSTTVDLKVTSPTTEDTATYFCARNWIRLDLWGQGTLVTVSS
VL: ELDLTQTPASVSAAVGGTVTISCQSSESLYKKNYLSWFQQKPGQPPKLLIFEASKLASGVPSRFSGSGSGTQFTLTISDVQCDDAASYYCLGDYTNGRDTTFGGGTEVVVK
notes: Rabbit mAb
An EC50 (human LILRB4 [2]) of 79.5 pM was found for B19 in this work.
